Assay in all cases: EMSA
A general note: Mobility shift assays separate free from complexed probe on a gel.

Series [1] concerns the target T1, MdEIL1 DNA-binding domain (His-MBP fusion) (UniProt D5L144 1-311).
T1 sequence: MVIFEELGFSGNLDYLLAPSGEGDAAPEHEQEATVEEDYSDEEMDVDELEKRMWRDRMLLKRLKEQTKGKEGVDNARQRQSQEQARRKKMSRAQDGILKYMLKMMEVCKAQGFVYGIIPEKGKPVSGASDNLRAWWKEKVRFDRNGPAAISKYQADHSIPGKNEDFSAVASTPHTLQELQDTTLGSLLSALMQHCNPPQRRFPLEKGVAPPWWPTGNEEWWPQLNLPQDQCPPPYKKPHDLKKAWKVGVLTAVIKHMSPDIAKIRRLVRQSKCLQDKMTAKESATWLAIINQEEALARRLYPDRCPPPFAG

The target in series [2] is T2, MdEIL3 DNA-binding domain (His-MBP fusion) (UniProt D5L146 1-311).
T2 sequence: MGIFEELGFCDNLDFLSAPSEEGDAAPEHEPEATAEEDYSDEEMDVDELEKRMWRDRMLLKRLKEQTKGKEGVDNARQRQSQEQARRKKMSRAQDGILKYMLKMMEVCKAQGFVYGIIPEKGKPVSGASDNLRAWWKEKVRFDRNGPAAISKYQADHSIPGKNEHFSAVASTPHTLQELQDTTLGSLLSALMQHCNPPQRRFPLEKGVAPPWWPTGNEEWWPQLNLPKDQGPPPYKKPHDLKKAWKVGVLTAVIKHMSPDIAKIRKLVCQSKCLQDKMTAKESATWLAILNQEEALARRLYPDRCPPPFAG

Series [3] has as its target T3, MdEIL2 DNA-binding domain (His-MBP fusion) (UniProt D5L145 1-311).
T3 sequence: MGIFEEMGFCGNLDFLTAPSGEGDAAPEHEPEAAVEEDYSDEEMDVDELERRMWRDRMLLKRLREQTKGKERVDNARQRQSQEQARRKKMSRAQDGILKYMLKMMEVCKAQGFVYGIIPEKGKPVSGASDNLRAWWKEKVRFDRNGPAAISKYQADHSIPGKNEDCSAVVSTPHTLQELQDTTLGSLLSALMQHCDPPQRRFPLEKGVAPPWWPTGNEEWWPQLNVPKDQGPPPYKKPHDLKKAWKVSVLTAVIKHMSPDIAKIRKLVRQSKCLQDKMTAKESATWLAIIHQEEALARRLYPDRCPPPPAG

For another series, the target named is His-MBP (UniProt P0AEX9 27-396).

B1: proMdAFS1 WT probe (dsDNA)
DNA 1: CCCACCCCTCCGGAGATTCATTTGATATCCCA
DNA 2: TGGGATATCAAATGAATCTCCGGAGGGGTGGG
As to B1, the binding result is “binds” in series [1], “binds” in series [2], “binds” in series [3] and “no binding” with His-MBP.

B2: proMdAFS1 MUT probe (dsDNA)
DNA 1: CCCACCCCTCCGGTAGCCTCTTTGATATCCCA
DNA 2: TGGGATATCAAAGAGGCTACCGGAGGGGTGGG
With B2, the binding result in series [1], in series [2] and in series [3] was “no binding” throughout.

The values are drawn from publication PMC11886506.
